Test results reported in patent publication US8415106B2, “Cell-based screen for agents useful for reducing neuronal demyelination or promoting neuronal remyelination” (Myelin Repair Foundation, Inc., priority 2005, dated 2013).

Tested on: oligodendrocytes and myelin in the corpus callosum
Assay: Cuprizone-induced demyelination/remyelination in GFAP/tTA; TRE/IFN-γ double transgenic mice
Assay type: in vivo
Experimental: The effects of IFN-γ on demyelination were evaluated in a cuprizone animal model using transgenic mice that allow for temporally regulated delivery of IFN-γ using the tetracycline controllable system (Lin, et al. (2004) J. Neurosci. 24: 10074-10083). The transgenic mice were generated by mating line 110 GFAP/tTA mice on the C57BL/6 background with line 184 TRE/IFN-γ on the C57BL/6 background to produce GFAP/tTA; TRE/IFN-γ double transgenic mice (Lin, et al. (2004) J. Neurosci. 24: 10074-10083). Transcriptional activation of the TRE/IFN-γ transgene by tTA was repressed in the control (DOX+) mice by adding 0.05 mg/ml doxycycline to the drinking water which was provided ad libitum from the day of conception. The DOX+ double transgenic mice were GFAP/tTA; TRE/IFN-γdouble transgenic animals fed cuprizone chow and never released from the doxycycline solution. DOX− double transgenic mice were GFAP/tTA; TRE/IFN-γdouble transgenic animals fed cuprizone chow and released from doxycycline to induce expression of IFN-γ.
Demyelination was induced in 6-week-old DOX+ and DOX− male mice by feeding the mice a diet of milled mouse chow containing 0.2% cuprizone (Sigma-Aldrich, St. Louis, Mo.) for up to 6 weeks. Subsequently, both groups of mice were returned to a normal diet for up to 3 weeks to allow remyelination to occur. All animal procedures were conducted in complete compliance with the NIH Guide for the Care and Use of Laboratory Animals and were approved by the Institutional Animal Care and Use Committee of The University of Chicago.
The effect of INF-γ on the population of oligodendrocytes was evaluated by immunohistochemical analysis of oligodendrocytes using an anti-CC1 antibody (APC7, 1:50; EMD Biosciences, Inc., La Jolla, Calif.) Immunohistochemistry was performed on brain sections obtained from mice that were first anesthetized mice and perfused through the left cardiac ventricle with 4% paraformaldehyde in 0.1M PBS. The brains were removed, postfixed with paraformaldehyde, cryopreserved in 30% sucrose, embedded in OCT and frozen on dry ice. Frozen sections were cut in a cryostat at a thickness of 10 μm. […] Fluorescent stained sections were mounted with Vectashield mounting medium with DAPI (Vector Laboratories) and visualized with a Zeiss Axioplan fluorescence microscope. […] Immunopositive cells were quantified by counting positive cells within the median of the corpus callosum, confined to an area of 0.04 mm^2. Only those cells with nuclei observable by DAPI staining were counted. Each MBP immunostaining slide was scored on a scale of zero to four. […]

B1: IFN-γ: pleotropic cytokine secreted by activated T lymphocytes and natural killer cells; recombinant rat IFN-γ added to cultures or transgenically expressed in mouse CNS (protein, UniProt P01581 23-156, looked up)
Interferon gamma: QGTLIESLESLKNYFNSSSMDAMEGKSLLLDIWRNWQKDGNTKILESQIISFYLRLFEVLKDNQAISNNISVIESHLITNFFSNSKAKKDAFMSIAKFEVNNPQIQHKAVNELIRVIHQLSPESSLRKRKRSRC
remyelinated axons (DOX− mice (IFN-γ expressed), corpus callosum, week 8, control DOX+ 48.4%±4%): 26.9%±7%
CC1 positive oligodendrocytes within the corpus callosum (DOX− mice, 8 weeks, control DOX+ 228.7±20.2): 78±12.7 /0.04 mm2
NG2 positive OPCs in the corpus callosum (DOX− mice, week 4 of cuprizone treatment, DOX+ 19±2.12): 46±4.24 /0.04 mm^2
NG2 positive OPCs in the corpus callosum (DOX− mice, week 6, DOX+ 80±2.8): 31.5±0.71 /0.04 mm^2
